Laboratory results published in the Human Domainome abundance scans (Beltran et al. 2025).
± gives the uncertainty stated by the source.

B1: Ankyrin-2, residues 3571 to 3650; numbered along this chain, Q01484 (parent)
chain: ERLAYIADHLGFSWTELARELDFTEEQIHQIRIENPNSLQDQSHALLKYWLERDGKHATDTNLVECLTKINRMDIVHLME

Variants of: B1
Assay: abundance fitness (aPCA) (normalised: wild type 0, dead -1); higher = more abundant; growth selection in yeast, the domain comes from the species named
Details: Homo sapiens
For F12P, the abundance fitness was -0.168 ± 0.13.
In the case of F12T, the abundance fitness is reported as -0.031 ± 0.08.
For N37F, the abundance fitness was -0.003 ± 0.24.
With N37S the abundance fitness was -0.031 ± 0.053.
In the case of N37M, the abundance fitness is reported as 0.099 ± 0.099.
N37W gave an abundance fitness of -0.091 ± 0.082.
N37L gave an abundance fitness of -0.067 ± 0.057.
With N37P the abundance fitness was -0.249 ± 0.082.
N37C gave an abundance fitness of -0.064 ± 0.1.
For L17M, the abundance fitness was -0.119 ± 0.11.
L17V gave an abundance fitness of -0.096 ± 0.078.
For L46Y, the abundance fitness was -0.336 ± 0.26.
Work on H57C yielded an abundance fitness of -0.062 ± 0.07.
Work on E20P yielded an abundance fitness of -0.814 ± 0.093.
For E20R, the abundance fitness was -0.057 ± 0.056.
E20W showed an abundance fitness of -0.156 ± 0.093.
For E20G, the abundance fitness was -0.095 ± 0.07.
With L10P the abundance fitness was -0.819 ± 0.11.
Work on L10D yielded an abundance fitness of -0.509 ± 0.2.
For L10K, the abundance fitness was -0.911 ± 0.37.
Work on L10R yielded an abundance fitness of -1.09 ± 0.16.
L10V showed an abundance fitness of -0.014 ± 0.08.
L10H showed an abundance fitness of -0.948 ± 0.37.
Variant L39Y has an abundance fitness of 0.076 ± 0.095.
Work on L39M yielded an abundance fitness of -0.042 ± 0.12.
With L39D the abundance fitness was -0.031 ± 0.11.
L39Q gave an abundance fitness of -0.102 ± 0.11.
L39F gave an abundance fitness of -0.013 ± 0.14.
L39P showed an abundance fitness of -0.016 ± 0.086.
For A4G, the abundance fitness was 0.052 ± 0.035.
Work on A4P yielded an abundance fitness of -0.071 ± 0.029.
Variant A4K has an abundance fitness of -0.029 ± 0.08.
With A4H the abundance fitness was 0.016 ± 0.067.
In the case of Q42P, the abundance fitness is reported as -0.768 ± 0.41.
In the case of Q42S, the abundance fitness is reported as 0.073 ± 0.13.
Work on Q42T yielded an abundance fitness of -0.538 ± 0.46.
Work on W14M yielded an abundance fitness of -0.394 ± 0.18.
W14Q gave an abundance fitness of -0.999 ± 0.43.
Variant W14C has an abundance fitness of -0.63 ± 0.13.
With W14V the abundance fitness was -0.283 ± 0.058.
With L3E the abundance fitness was -0.289 ± 0.23.
For L3I, the abundance fitness was 0.05 ± 0.24.
With L47K the abundance fitness was -0.412 ± 0.17.
L47T gave an abundance fitness of -0.026 ± 0.059.
With L47Q the abundance fitness was -0.626 ± 0.1.
Work on L47V yielded an abundance fitness of -0.034 ± 0.062.
In the case of A7R, the abundance fitness is reported as 0.087 ± 0.48.
A7M gave an abundance fitness of -0.045 ± 0.25.
Work on A7Q yielded an abundance fitness of -0.089 ± 0.35.
Variant R32L has an abundance fitness of -0.034 ± 0.068.
With R32F the abundance fitness was -0.088 ± 0.17.
Work on R32Y yielded an abundance fitness of -0.384 ± 0.2.
Work on D54F yielded an abundance fitness of 0.01 ± 0.12.
Work on D54Y yielded an abundance fitness of 0.008 ± 0.091.
D54V gave an abundance fitness of -0.024 ± 0.071.
K69G showed an abundance fitness of -0.06 ± 0.041.
K69T showed an abundance fitness of -0.032 ± 0.062.
With K69I the abundance fitness was -0.121 ± 0.15.
Work on K69C yielded an abundance fitness of -0.094 ± 0.1.
Work on K69V yielded an abundance fitness of -0.027 ± 0.044.
In the case of K69Q, the abundance fitness is reported as 0 ± 0.066.
For N71Y, the abundance fitness was -0.476 ± 0.36.
With N71P the abundance fitness was -0.135 ± 0.057.
For N71G, the abundance fitness was -0.014 ± 0.076.
Variant N71L has an abundance fitness of -0.196 ± 0.055.
Work on N71A yielded an abundance fitness of 0.021 ± 0.099.
In the case of N71R, the abundance fitness is reported as -0.031 ± 0.073.
With N71T the abundance fitness was -0.18 ± 0.078.
For N71H, the abundance fitness was -0.163 ± 0.13.
In the case of I75E, the abundance fitness is reported as -0.031 ± 0.11.
For D74T, the abundance fitness was -0.793 ± 0.12.
D74G gave an abundance fitness of -0.678 ± 0.094.
Work on D74A yielded an abundance fitness of -0.515 ± 0.059.
For D74S, the abundance fitness was -0.593 ± 0.067.
In the case of D74N, the abundance fitness is reported as -0.577 ± 0.17.
D74L showed an abundance fitness of -0.849 ± 0.095.
In the case of I28D, the abundance fitness is reported as -0.895 ± 0.17.
Work on I28M yielded an abundance fitness of -0.064 ± 0.13.
In the case of I28S, the abundance fitness is reported as -0.203 ± 0.073.
I28A showed an abundance fitness of -0.215 ± 0.078.
R72T gave an abundance fitness of -0.331 ± 0.29.
For R72Q, the abundance fitness was -0.137 ± 0.16.
For R72W, the abundance fitness was -0.659 ± 0.28.
K56V showed an abundance fitness of -0.057 ± 0.059.
